This assay concerns the target SARS-CoV-2 S2 (T1076-Q1208) antigen, trimeric S2 fusion-core-based antigen (SARS-CoV-2 prototype (MN908947.3), UniProt P0DTC2, biotin (Biotinylation Kit)). Description: BLI. Particulars: both partners purified.

B1: anti-SH neutralizing antibody CV3-25 (antibody, V domains shown)
VH: EVQLVESGAEVKKPGESLKISCKGSGYTFTRYWIGWVRQMPGKGLEWMGIIYPGDSDTRYSPSFQGHVTISADKSISTAYLQWNSLKASDTAMYYCARLPQYCSNGVCQRWFDPWGQGTLVTVSS
VL: EIVLTQSPSSVSASVGDRVTITCRASQGISSWLAWYQQKPGKAPKLLIYAASSLQSGVPSRFSGSGSGTDFTLTISSLQPEDFATYYCQQGNSFPYTFGQGTNLEIK
For B1, the binding result is listed as “binds”.

Values taken from paper PMC12052392 (PLOS Pathogens, 2025).
